Measurements taken from publication PMC2107256 (The Journal of Cell Biology, 1967).
Where “and” joins values, the source holds several entries; their conditions need not be identical. Equal values may be shown once. Read-outs that look alike come from different tables or passages of the source. Blank lines part the entries; values can stand above or below the molecule they belong to.

How the values were obtained:
Experiment in all cases: AUC
[1] = target: 22S protein of the mitotic apparatus, Strongylocentrotus droebachiensis (Strongylocentrotus droebachiensis)
[2] = target: 22S protein of the mitotic apparatus, Strongylocentrotus droebachiensis (Strongylocentrotus droebachiensis); remark: listed apart in the source
[3] = target: 22S protein of the mitotic apparatus, Strongylocentrotus droebachiensis (Strongylocentrotus droebachiensis); remark: listed apart in the source
[4] = target: 22S protein of the mitotic apparatus, Arbacia punctulata (Arbacia punctulata)
[5] = target: 22S protein of the mitotic apparatus, Arbacia punctulata (Arbacia punctulata); remark: listed apart in the source
[6] = target: 22S protein of the mitotic apparatus, Arbacia punctulata (Arbacia punctulata); remark: listed apart in the source
[7] = target: 22S protein of the mitotic apparatus, Arbacia punctulata (Arbacia punctulata); remark: listed apart in the source
[8] = target: 22S protein of the mitotic apparatus, Arbacia punctulata (Arbacia punctulata); remark: listed apart in the source
[9] = target: 22S protein of the mitotic apparatus, Arbacia punctulata (Arbacia punctulata); remark: listed apart in the source
AUC [10] = target: the molecule itself
AUC [11] = target: the molecule itself; remark: listed apart in the source

stoichiometry N [1]: 2
stoichiometry N [2]: 2
stoichiometry N [3]: 8
Molecule: 22S protein of the mitotic apparatus, Strongylocentrotus droebachiensis (natural protein)

stoichiometry N [4]: 2
stoichiometry N [5]: 2
stoichiometry N [6]: 2
stoichiometry N [7]: 4 and 2 and 6
stoichiometry N [8]: 6 and 4 and 2
stoichiometry N [9]: 8
Molecule: 22S protein of the mitotic apparatus, Arbacia punctulata (natural protein)

B1: 22S protein of the mitotic apparatus, Strongylocentrotus purpuratus (natural protein)
chain: VPSGSLGSRPGTCPPQPSDQVMIEATRCSYVYGLTWDWNCNSQGQENYKCCQYENDIRICVPPIPADVDEEVGVEQPSQSVDQVRQAIQKTQDFIRKVGLYPAPDQRRRTTPTPDTVRWCVSSRCQMTKCQRMVSEFTYSPNMVPRKQWKCTQATSQEQCMFWIEQGWADIMTTREGQVYSANTTFNLKPIAYETTINDQQPEIQILKHYQNVTFALKSSRLVNPNTFSELRDKTTCHAGIDMPDFDMPASFADPVCNLIKEGVIPVTGNYIESFSDFVQESCVPGVLNMTYNKNGTYPLSLVTLCEDQQYKYSGIKGALSCLESGKGQVTFVDQKVIKKIMSDPNVRDNFQVVCRDESRPLDEEIFTDVTCHVGHTARPTIFINKNNTQQKETDIKTLVVKMMELYGNTDRDVNFNIFDSSVYDCGKCQMTGKPLNKNLIFLEESNTMKIVDDSKVYAGEVYAAYNVCSKLVPKPRAKICVTNVTEYEACRRFKGIAENIPEVKKVAWGCVLANSSIECMQAVHNNTADLFKANPMETFIAGKEFLLDPLMSVHRNDSVTMNHTYTRTLAVIKRSSLAKFPGLLSVPEGQPKYIKDLWKLKICSAGLKNFSAFHSPIGYLLANGTIPRIGSVFESVNRYFQATCVPEIEPETWRLDSDLLLGREMNWGFSSLNMYNFTGQEWLLWNTPATWNFLTYNRKVSTGLDIKKLIELKKQNLTSHIFNQNLSSPRNVELLDDLVGVEGISDLVKGVQDTIGPEGKQKMNMLRDRLSNSFPNFEAVRTLSDKVDIVNKMKDARQQRLQNKDHPFGNVIQETFQGHLMVDVFSKLLELRSDKISTLEEIISHVKTIPYLTDFKDVEITTVLKHPAIMSYVEIYFPRLSQTFVEPFDNVELREREFNRYTNPLWLSPKVHTYLDLVKNHQTEITKTCNSNLPLNFKGYEGALRCLKSGVADLASSTSRPSVTRTLRDTDLSTGWVHLQRPPPSLPQRQVVEIDVNMDIAKVCNFGEVMNPVLVTAYNTSGSWRWNITKALMIAHQSVALPALFGEGTVMGKDYDMLLPIAPLNQSYQPFLGSKPLRSMEAIVKASSYDWFKDQTGICYGETYTNIVKQRNETCQAIVKDVTCVGTPRMKKISVGRFGAKQFKMIKMCSRPSKFVRKMADFQCDNGFGYLKPVITAVACECMLCEEMIEYNTSFTEDNMWSDVSNKYVLTGEQDIYRQIPIWGNNSYFYDHTLNKNFELGNHSIIVEHVQTVVVERPSPGILSQVNSEVDPEVQVQMDSASLTKTCETVWNGQSWLPERFQGYKTSGSCVVPETGANAKSRVDRFRQIMQRKQQLVDHHH
modifications: carbohydrate 5-6% (orcein assay) or 7-8% (anthrone test), several per cent glucosamine; sites not stated
stoichiometry N (AUC [10]): 2
stoichiometry N (AUC [11]): 8
